Blank lines part the entries; values can stand above or below the binder they belong to.
What was measured:
[1] = biological target: T1, human annexin A1 (Anx-A1) (human, UniProt P04083 2-346); test: Biacore SPR, assay 2 of 3, method of Example 4; second of three experiments
T1 construct: also called full-length human Anx-A1 (ANXA1-002 / ANXA1-003 transcripts)
T1 sequence: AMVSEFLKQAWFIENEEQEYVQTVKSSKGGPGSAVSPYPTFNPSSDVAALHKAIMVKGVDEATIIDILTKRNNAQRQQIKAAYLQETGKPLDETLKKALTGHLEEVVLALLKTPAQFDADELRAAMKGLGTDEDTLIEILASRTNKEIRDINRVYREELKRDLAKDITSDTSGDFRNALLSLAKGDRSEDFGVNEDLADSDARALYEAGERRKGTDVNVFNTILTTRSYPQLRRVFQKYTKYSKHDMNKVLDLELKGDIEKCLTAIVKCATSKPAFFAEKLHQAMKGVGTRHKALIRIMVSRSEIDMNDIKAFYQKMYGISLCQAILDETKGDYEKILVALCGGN
Description: (§1) The Mdx001 antibody was immobilised on a chip via a goat anti-mouse IgG. Ligand (Anx-A1) was passed over the immobilised antibody in running buffer. Anx-A1 was used at a concentration of 5, 10, 20, 40 or 80 nM. In each experiment, a total of 150 μl Anx-A1-containing running buffer was passed over the antibody, at a flow rate of 30 μl/min.
(§2) In light of the ELISA results, the LC1(mod 1)HC4 and LC2(mod 1)HC2 antibodies were discarded. […] Binding of LC1(mod 2)HC4 and LC2(mod 2)HC2 to Anx-A1 was quantified by Biacore, using the same method as described in Example 4. As in Example 4, the Biacore experiments were performed in triplicate. […] LC1(mod 2)HC4 was given the name MDX-L1M2H4. […] LC2(mod 2)HC2 was given the name MDX-L2M2H2.

[2] = biological target: T1, human annexin A1 (Anx-A1); test: Biacore SPR, assay 3 of 3, method of Example 4; third of three experiments
Description: as §1, §2

[3] = biological target: T1, human annexin A1 (Anx-A1); test: Biacore SPR, assay 1 of 3, method of Example 4; first of three experiments
Description: as §1, §2

[4] = biological target: T1, human annexin A1 (Anx-A1); test: Biacore SPR, average of three assays, method of Example 4; average of the three experiments
Description: as §1, §2

[5] = biological target: T1, human annexin A1 (Anx-A1); test: Biacore SPR, assay 2 of 3; antibody captured via goat anti-mouse IgG, Anx-A1 at 5-80 nM as analyte, 1 mM CaCl2
Description: as §1
(§3) Regeneration was performed using a regeneration buffer, 10 mM glycine-HCl, pH 2. To regenerate the chip, 70 μl regeneration buffer was passed over the chip at a rate of 10 μl/min.
(§4) Experiments were performed in triplicate.

[6] = biological target: T1, human annexin A1 (Anx-A1); test: Biacore SPR, assay 1 of 3; antibody captured via goat anti-mouse IgG, Anx-A1 at 5-80 nM as analyte, 1 mM CaCl2
Description: as §1, §3, §4

[7] = biological target: T1, human annexin A1 (Anx-A1); test: Biacore SPR, assay 3 of 3; antibody captured via goat anti-mouse IgG, Anx-A1 at 5-80 nM as analyte, 1 mM CaCl2
Description: as §1, §3, §4

[8] = biological target: T1, human annexin A1 (Anx-A1); test: Biacore SPR, average of three assays; antibody captured, Anx-A1 as analyte
Description: as §1, §3, §4

Kd [1]: 4.37 nM
Kd [2]: 5.17 nM
Kd [3]: 4.44 nM
Kd [4]: 4.66 nM
B1: MDX-L2M2H2 (antibody, human IgG1, kappa, V domains shown)
VH: QVQLVQSGPEVKKPGESLKISCKGSGYTFTNYWIGWVRQAPGKGLEWMGDIYPGGDYTNYNEKFKGQVTISADKSISTAYLQWSSLKASDTAIYYCARWGLGYYFDYWGRGTLVTVSS
VL: DIVMTQTPLSLSVTPGQPASISCRSSQSLENSNAKTYLNWYLQKPGQSPQLLIYGVSNRFSGVPDRFSGSGSGTDFTLKISRVEAEDVGVYYCLQVTHVPYTFGQGTKVEIKR
notes: also called LC2(mod 2)HC2; variant 1 of MDX-L2H2

Kd [5]: 9.58 nM
Kd [6]: 9.43 nM
Kd [7]: 6.46 nM
Kd [8]: 8.49 nM
B2: Mdx001 (antibody, mouse IgG2b, kappa, V domains shown)
VH: QVQLQQSGPELVRPGTSVKMSCKASGYTFTNYWIGWAKQRPGHGLEWIGDIYPGGDYTNYNEKFKGKATLTADKSSSTAYMQFSSLTSEDSAIYYCARWGLGYYFDYWGQGITLTVSS
VL: DAVMTQTPLSLPVSLGDQVSISCRSSQSLENSNGKTYLNWYLQKPGQSPQLLIYGVSNRFSGVLDRFSGSGSGTDFTLKISRVEAEDLGVYFCLQVTHVPYTFGGGTKLEIKR
notes: also called murine anti-Anx-A1 antibody

— patent US20200031911A1 (MEDANNEX, published 2020)
